The experiment concerns the target Full-length HA-tagged PTPN12 (human) (UniProt Q05209). Kind of experiment: co-IP; Hek293 cells co-transfected with HA-PTPN12 and GFP-tagged FlnAs; 500 µg lysate in NETF buffer, 6 µg anti-HA 2 h at 4 °C, protein A beads; immunoblot.

Some results are limits rather than exact numbers.

Sequence of UniProt Q05209 (Q05209 whole entry): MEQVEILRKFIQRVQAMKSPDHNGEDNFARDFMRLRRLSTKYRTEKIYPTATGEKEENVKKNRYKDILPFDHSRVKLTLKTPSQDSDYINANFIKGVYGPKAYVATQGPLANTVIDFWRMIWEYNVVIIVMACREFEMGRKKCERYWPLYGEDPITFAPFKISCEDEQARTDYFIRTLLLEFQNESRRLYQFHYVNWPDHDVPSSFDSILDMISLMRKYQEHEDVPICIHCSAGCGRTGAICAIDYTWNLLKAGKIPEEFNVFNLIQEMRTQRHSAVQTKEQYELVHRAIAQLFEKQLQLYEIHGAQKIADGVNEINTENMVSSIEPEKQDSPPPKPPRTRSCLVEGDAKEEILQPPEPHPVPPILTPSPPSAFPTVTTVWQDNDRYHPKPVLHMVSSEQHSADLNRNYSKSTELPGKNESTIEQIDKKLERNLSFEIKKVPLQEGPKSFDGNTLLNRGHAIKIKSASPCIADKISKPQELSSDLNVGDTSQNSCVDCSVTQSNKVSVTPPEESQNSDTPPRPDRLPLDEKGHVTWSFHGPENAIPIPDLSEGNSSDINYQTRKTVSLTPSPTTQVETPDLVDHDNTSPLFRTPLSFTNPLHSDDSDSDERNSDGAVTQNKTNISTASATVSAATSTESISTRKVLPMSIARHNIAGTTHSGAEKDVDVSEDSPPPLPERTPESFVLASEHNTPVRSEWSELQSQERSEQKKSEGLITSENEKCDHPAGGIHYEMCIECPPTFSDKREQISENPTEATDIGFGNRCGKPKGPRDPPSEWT

As to GFP-tagged-FlnA-G288R, P21333 1-2647, the reduction of the FlnA co-immunoprecipitated with respect to FlnA-WT is over 60%.
As to GFP-tagged-FlnA-P637Q, P21333 1-2647, the reduction of the FlnA co-immunoprecipitated with respect to FlnA-WT was over 60%.

Values taken from paper PMC4654411.
